# Experimental data as given in patent US20120213761.
# T1: tumor necrosis factor receptor-associated factor 2 (TRAF2), endogenous, in human cardiac tissue, Q12933
# T1 chain: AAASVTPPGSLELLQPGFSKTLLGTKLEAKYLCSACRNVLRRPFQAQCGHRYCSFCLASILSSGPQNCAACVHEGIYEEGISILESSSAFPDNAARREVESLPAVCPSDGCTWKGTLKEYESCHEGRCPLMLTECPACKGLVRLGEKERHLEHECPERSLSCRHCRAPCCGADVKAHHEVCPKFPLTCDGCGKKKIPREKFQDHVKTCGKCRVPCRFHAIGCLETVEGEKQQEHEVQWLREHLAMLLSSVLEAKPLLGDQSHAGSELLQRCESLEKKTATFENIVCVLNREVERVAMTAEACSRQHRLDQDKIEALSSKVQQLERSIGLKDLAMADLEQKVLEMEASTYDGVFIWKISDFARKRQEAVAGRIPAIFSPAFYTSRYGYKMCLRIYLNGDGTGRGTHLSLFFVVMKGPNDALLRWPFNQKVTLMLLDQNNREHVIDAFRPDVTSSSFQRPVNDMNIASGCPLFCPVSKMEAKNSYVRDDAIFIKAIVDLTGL
# B1: recombinant GSTP1 (Assay Design, Ann Arbor, Mich.) (protein)
# chain: PPYTVVYFPVRGRCAALRMLLADQGQSWKEEVVTVETWQEGSLKASCLYGQLPKFQDGDLTLYQSNTILRHLGRTLGLYGKDQQEAALVDMVNDGVEDLRCKYISLIYTNYEAGKDDYVKALPGQLKPFETLLSQNQGGKTFIVGDQISFADYNLLDLLLIHEVLAPGCLDAFPLLSAYVGRLSARPKLKAFLASPEYVNLPINGNGKQ
# Molecular target: T1, tumor necrosis factor …
protein,measurement,value
B1,"JNK1 and p38 activation (active JNK / active p38 protein, Western blot) in cardiac tissue cultures",acts as a negative regulator of JNK1 and p38 activation
same,TNF-α-induced JNK and p38 activation in DCM cardiac tissue cultures (Western blot),higher GSTP1 concentrations inhibit TNF-α-induced JNK and p38 activation in DCM
